Assay results reported in article PMC8709174.

Target: Aplysia californica acetylcholine binding protein (Ac-AChBP) (Aplysia californica)
Test: crystal structure

With α-conotoxin RgIA (peptide) the stoichiometry N (RgIA per Ac-AChBP pentamer) was 5.
